{"source": "patent US20220324938A1", "about": "(published 2022)", "binders": {"B1": {"name": "B*07:02/MAGE-A1289-297 TCR (TCR, V domains shown)", "Valpha": "AQKVTQAQTEISVVEKEDVTLDCVYETRDTTYYLFWYKQPPSGELVFLIRRNSFDEQNEISGRYSWNFQKSTSSFNFTITASQVVDSAVYFCALSESYSGAGSYQLTFGKGTKLSVIP", "Vbeta": "DTGVSQNPRHKITKRGQNVTFRCDPISEHNRLYWYRQTLGQGPEFLTYFQNEAQLEKSRLLSDRFSAERPKGSFSTLEIQRTEQGDSAMYLCASSLASGSNQPQHFGDGTRLSIL"}, "B2": {"name": "B*18:01/MART125-33 TCR (TCR, V domains shown)", "Valpha": "GQNIDQPTEMTATEGAIVQINCTYQTSGFNGLFWYQQHAGEAPTFLSYNVLDGLEEKGRFSSFLSRSKGYSYLLLKELQMKDSASYLCAVYGGATNKLIFGTGTLLAVQP", "Vbeta": "NAGVMQNPRHLVRRRGQEARLRCSPMKGHSHVYWYRQLPEEGLKFMVYLQKENIIDESGMPKERFSAEFPKEGPSILRIQQVVRGDSAAYFCASSPHAGGVDEKLFFGSGTQLSVL"}, "B3": {"name": "B*18:01/MAGE-A3167-176 TCR (TCR, V domains shown)", "Valpha": "AQKVTQAQTEISVVEKEDVTLDCVYETRDTTYYLFWYKQPPSGELVFLIRRNSFDEQNEISGRYSWNFQKSTSSFNFTITASQVVDSAVYFCALEVRSSASKIIFGSGTRLSIRP", "Vbeta": "GAVVSQHPSWVICKSGTSVKIECRSLDFQATTMFWYRQFPKQSLMLMATSNEGSKATYEQGVEKDKFLINHASLTLSTLTVTSAHPEDSSFYICSANPRTTLYEQYFGPGTRLTVT"}, "B4": {"name": "A*02:01/SSX241-49 TCR (TCR, V domains shown)", "Valpha": "KQEVTQIPAALSVPEGENLVLNCSFTDSAIYNLQWFRQDPGKGLTSLLLIQSSQREQTSGRLNASLDKSSGRSTLYIAASQPGDSATYLCAVEPMEYGNKLVFGAGTILRVKS", "Vbeta": "DGGITQSPKYLFRKEGQNVTLSCEQNLNHDAMYWYRQDPGQGLRLIYYSQIVNDFQKGDIAEGYSVSREKKESFPLTVTSAQKNPTAFYLCASSALFSGANVLTFGAGSRLTVL"}}, "experiment_in_all_cases": "multimer staining", "key": {"[1]": {"target": "T1, MAGE-A1 peptide on HLA-B*07:02 (human)", "T1 peptide": "RVRFFFPSL"}, "[2]": {"target": "T2, MART1 peptide on HLA-B*18:01 (human)", "T2 peptide": "EEAAGIGIL"}, "[3]": {"target": "T3, MAGE-A3 peptide on HLA-B*18:01 (human)", "T3 peptide": "MEVDPIGHLY"}, "[4]": {"target": "T4, SSX2 peptide on HLA-A*02:01 (human)", "T4 peptide": "KASEKIFYV"}}}
{"binder": "B1", "values": [{"measurement": "binding result", "setting": "[1]", "result": "recognises"}]}
{"binder": "B2", "values": [{"measurement": "binding result", "setting": "[2]", "result": "recognises"}]}
{"binder": "B3", "values": [{"measurement": "binding result", "setting": "[3]", "result": "recognises"}]}
{"binder": "B4", "values": [{"measurement": "binding result", "setting": "[4]", "result": "recognises"}]}
